Reference: patent US20220041718A1 (AUTOLUS, published 2022)

Columns and labels:
[1] = target: T1, Recombinant purified TRBC2 (human, UniProt A0A5B9 1-129, limits assumed); test: SPR (Biacore T200), biotinylated TRBC2 captured on a CAP chip, scFv-COMP injected; half-life of dissociation, t1/2 = ln 2/kd [cont.) C]
T1 construct: Construct not described (may be a soluble TCR carrying TRBC2); also called TCR beta constant region 2; soluble recombinant biotinylated TRBC2
Procedure: (§1) To test multivalent interaction of scFv-Fc and scFv-COMP antibody formats, a series S CAP chip was immobilised with Biotin capture reagent to 2500-5000 RU. Soluble recombinant biotinylated TRBC1 and TRBC2 were captured on flow cells 3, in independent experimental cycles, to a density of 90-110 RU. Purified anti-TRBC2 scFv-Fc or scFv-COMP antibodies were injected over the flow cell with 150s contact time and 300s dissociation at 30 μl/minute of flow rate. On flow cell 1, biotinylated protein was omitted and used for reference subtraction. A ‘0 concentration’ sensorgram of buffer alone was used as a double reference subtraction to factor for drift. Data were fit to a 1:1 Langmuir binding model. Since a capture system was used, a local Rmax parameter was used for the data fitting in each case. Off-rate value was determined, and half-life calculated according to: t1/2=ln 2/kd.

[2] = target: T1, Recombinant purified TRBC2; test: SPR, biotinylated TRBC captured on CAP chip, antibody injected; t1/2=ln 2/kd
Procedure: as §1

[3] = target: T1, Recombinant purified TRBC2; test: SPR, 1:1 interaction, antibody captured, TRBC as analyte; t1/2=ln 2/kd
Excerpt: (§2) To test 1:1 binding interaction of the anti-TRBC2 scFv, a series S CM5 sensor chip was immobilised via amine coupling, with an anti-human Fc capture antibody to a density of 9000-10000 RU, using a Biacore T200 instrument. HBS-P+ buffer was used as running buffer in all experimental conditions. The test anti-TRBC2 antibody was captured on flow 4 to a density of 200-250 RU. Recombinant purified TRBC1 or TRBC2 at known concentrations were used as the ‘analyte’ and injected over the respective flow cells with 150s contact time and 300s dissociation at 30 μl/minute of flow rate. Flow cell 1 was unmodified and used for reference subtraction. A ‘0 concentration’ sensorgram of buffer alone was used as a double reference subtraction to factor for drift. Data were fit to a 1:1 Langmuir binding model. Since a capture system was used, a local Rₘₐₓ parameter was used for the data fitting in each case. Off-rate value was determined, and half-life calculated according to: t1/2=ln 2/kd.

[4] = target: T1, Recombinant purified TRBC2; test: SPR (Biacore T200), captured anti-TRBC2 binder, recombinant TRBC2 as analyte; half-life of dissociation, t1/2 = ln 2/kd
Excerpt: as §2

T1 sequence (A0A5B9 1-129 limits assumed): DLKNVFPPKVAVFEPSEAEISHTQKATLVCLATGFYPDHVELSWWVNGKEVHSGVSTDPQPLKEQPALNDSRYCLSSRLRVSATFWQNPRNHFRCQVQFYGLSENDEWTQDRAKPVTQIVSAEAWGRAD

t1/2 [1] [min]	half-life [2] [min]	half-life [3] [s]	t1/2 [4] [s]	Binder
7.26	7.3	–	–	anti-TRBC2 scFv-COMP (T28K, Y32F, A100N, Y102L, N103M in VH; N35R in VL of hJovi-1) (other, scFv fused to the COMP coiled-coil) QVQLVQSGAEVKKPGASVKVSCKASGYKFTGFVMHWVRQAPGQGLEWMGFINPYNDDIQSNERFRGRVTMTRDTSISTAYMELSRLRSDDTAVYYCARGNGLMFDGAYRFFDFWGQGTMVTVSSGGGGSGGGGSGGGGSDIVMTQSPLSLPVTPGEPASISCRSSQRLVHSNGRTYLHWYLQKPGQSPRLLIYRVSNRFPGVPDRFSGSGSGTDFTLKISRVEAEDVGVYYCSQSTHVPYTFGQGTKLEIKRSGGGGSGGGGSGGGGSAGSDLGPQMLRELQETNAALQDVRELLRQQVREITFLKNTVMECDACGSGKKDPKSGGGGSYPYDVPDYA
–	0.27	–	–	anti-TRBC2 scFv-Fc (T28K, Y32F, A100N, Y102L, N103M in VH; N35R in VL of hJovi-1) (Fc fusion, Multivalent format) QVQLVQSGAEVKKPGASVKVSCKASGYKFTGFVMHWVRQAPGQGLEWMGFINPYNDDIQSNERFRGRVTMTRDTSISTAYMELSRLRSDDTAVYYCARGNGLMFDGAYRFFDFWGQGTMVTVSSGGGGSGGGGSGGGGSDIVMTQSPLSLPVTPGEPASISCRSSQRLVHSNGRTYLHWYLQKPGQSPRLLIYRVSNRFPGVPDRFSGSGSGTDFTLKISRVEAEDVGVYYCSQSTHVPYTFGQGTKLEIKRSDPRGPTIKPCPPCKCPAPNLLGGPSVFIFPPKIKDVLMISLSPIVTCVVVDVSEDDPDVQISWFVNNVEVHTAQTQTHREDYNSTLRVVSALPIQHQDWMSGKEFKCKVNNKDLPAPIERTISKPKGSVRAPQVYVLPPPEEEMTKKQVTLTCMVTDFMPEDIYVEWTNNGKTELNYKNTEPVLDSDGSYFMYSKLRVEKKNWVERNSYSCSVVHEGLHNHHTTKSFSRTPGK
–	–	8	8.3	anti-TRBC2 scFv (T28K, Y32F, A100N, Y102L, N103M in VH; N35R in VL of hJovi-1) (scFv, the format in the assay is unsure) scFv: QVQLVQSGAEVKKPGASVKVSCKASGYKFTGFVMHWVRQAPGQGLEWMGFINPYNDDIQSNERFRGRVTMTRDTSISTAYMELSRLRSDDTAVYYCARGNGLMFDGAYRFFDFWGQGTMVTVSSGGGGSGGGGSGGGGSDIVMTQSPLSLPVTPGEPASISCRSSQRLVHSNGRTYLHWYLQKPGQSPRLLIYRVSNRFPGVPDRFSGSGSGTDFTLKISRVEAEDVGVYYCSQSTHVPYTFGQGTKLEIKR
